Assay results reported in patent publication US20170326246A1 (INSTITUT PASTEUR, published 2017).
*1 amine or outer side, *2 acyl side, *3 side chain or, on linkers, in order; H or OH if unused. [ ]: non-standard residue; d: D form. U1 = 4-cyclohexylmethoxy-L-phenylalanine, O=C([C@H](Cc1ccc(OCC2CCCCC2)cc1)N[*:1])[*:2]; Bip = N[C@@H](Cc1ccc(-c2ccccc2)cc1)C(=O)O; Tpa = thiopropionic acid

B1: mCD4.2-PS1 (peptide)
peptide 1: NLHKCQLRCSSLGLLGRCAPTFCACV
peptide 2: SYDYSYDYSYDYS
modifications: not fully specified; N-terminal gamma-aminobutyric acid (gammaAbu) acylated with 3-thiopropionyl (from SATP); all six Tyr are sulfotyrosine (YSO3); N-terminal Tpa; D-proline at position 21; U1 (4-cyclohexylmethoxy-L-phenylalanine) at position 23; C-terminal amide; Lys5 N-epsilon carries the PEO2-maleimide linker bound to the thiol of the PS1 chain
B2: M48U1-PS1 (peptide)
peptide 1: NLHFCQLRCKSLGLLGRCAPTFCACV
peptide 2: SYDYSYDYSYDYS
modifications: not fully specified; N-terminal gamma-aminobutyric acid (gammaAbu) acylated with 3-thiopropionyl (from SATP); all six Tyr are sulfotyrosine (YSO3); N-terminal Tpa; D-proline at position 21; U1 (4-cyclohexylmethoxy-L-phenylalanine) at position 23; C-terminal amide; Lys11 N-epsilon carries the PEO2-maleimide linker bound to the thiol of the PS1 chain
B3: mCD4.1 (peptide)
peptide: Tpa-NLHKCQLRCSSLGLLGRCAGS[Bip]CACV-NH2
modifications: disulfide (positions not given here); also: three disulphide bridges, pairing not given here
B4: mCD4.1-PS1 (peptide)
peptide 1: NLHKCQLRCSSLGLLGRCAGSFCACV
peptide 2: SYDYSYDYSYDYS
modifications: N-terminal gamma-aminobutyric acid (gammaAbu) acylated with 3-thiopropionyl (from SATP); all six Tyr are sulfotyrosine (YSO3); N-terminal Tpa (thiopropionic acid); Bip at position 23; C-terminal …; Lys5 N-epsilon carries the PEO2-maleimide linker bound to the thiol of the PS1 chain
B5: mCD4.3-PS1 (peptide)
peptide 1: NLHKCQLRCRSLGLLGRCAPTFCACV
peptide 2: SYDYSYDYSYDYS
modifications: not fully specified; N-terminal gamma-aminobutyric acid (gammaAbu) acylated with 3-thiopropionyl (from SATP); all six Tyr are sulfotyrosine (YSO3); N-terminal Tpa; D-proline at position 21; U1 (4-cyclohexylmethoxy-L-phenylalanine) at position 23; C-terminal amide; Lys5 N-epsilon carries the PEO2-maleimide linker bound to the thiol of the PS1 chain

These binders were tested against gp120 of viral strain IIIB (HIV, strain IIIB) (assay: cell-based or functional assay).

Binder | EC50 (antiviral activity, TZM-bl cells, luciferase) [nM]
B1 | 0.007
B2 | 0.02
Tpa-NLHFCQLRCKSLGLLGRCA[dP]T[U1]CACV-NH2 (disulfide (positions not given here)) [M48U1] | 0.08
B3 | 29
B4 | 0.013
Tpa-NLHKCQLRCRSLGLLGRCA[dP]T[U1]CACV-NH2 (disulfide (positions not given here)) [mCD4.3] | 0.16
Tpa-NLHKCQLRCSSLGLLGRCA[dP]T[U1]CACV-NH2 (disulfide (positions not given here)) [mCD4.2] | 0.22
B5 | 0.0025

These binders were tested against gp120 of viral strain MN (HIV, strain MN, UniProt P05877 32-513) (assay: cell-based or functional assay).

Binder | EC50 (antiviral activity, TZM-bl cells, luciferase) [nM]
B1 | 0.046
B2 | 0.12
Tpa-NLHFCQLRCKSLGLLGRCA[dP]T[U1]CACV-NH2 (disulfide (positions not given here)) [M48U1] | 0.25
B3 | 20
B4 | 0.08
Tpa-NLHKCQLRCRSLGLLGRCA[dP]T[U1]CACV-NH2 (disulfide (positions not given here)) [mCD4.3] | 0.37
Tpa-NLHKCQLRCSSLGLLGRCA[dP]T[U1]CACV-NH2 (disulfide (positions not given here)) [mCD4.2] | 0.6
B5 | 0.026

Each binder was assayed against gp120 of viral strain SHIV162p3 (SHIV162p3) (assay: cell-based or functional assay).

Binder | EC50 (antiviral activity, TZM-bl cells, luciferase) [nM]
B1 | 2.2
B2 | 3.4
Tpa-NLHFCQLRCKSLGLLGRCA[dP]T[U1]CACV-NH2 (disulfide (positions not given here)) [M48U1] | 24
B3 | 5370
B4 | 36
Tpa-NLHKCQLRCRSLGLLGRCA[dP]T[U1]CACV-NH2 (disulfide (positions not given here)) [mCD4.3] | 29
Tpa-NLHKCQLRCSSLGLLGRCA[dP]T[U1]CACV-NH2 (disulfide (positions not given here)) [mCD4.2] | 69
B5 | 1.4

The binders below were run against gp120 of viral strain SF162 (HIV, strain SF162, UniProt P19550 32-502) (assay: cell-based or functional assay).

Binder | EC50 (antiviral activity, TZM-bl cells, luciferase) [nM]
B1 | 0.01
B2 | 0.05
Tpa-NLHFCQLRCKSLGLLGRCA[dP]T[U1]CACV-NH2 (disulfide (positions not given here)) [M48U1] | 1
B3 | 130
B4 | 0.11
Tpa-NLHKCQLRCRSLGLLGRCA[dP]T[U1]CACV-NH2 (disulfide (positions not given here)) [mCD4.3] | 0.66
Tpa-NLHKCQLRCSSLGLLGRCA[dP]T[U1]CACV-NH2 (disulfide (positions not given here)) [mCD4.2] | 1.24
B5 | 0.008

Each binder was assayed against gp120 of viral strain VI829 (HIV, strain VI829) (assay: cell-based or functional assay).

Binder | EC50 (antiviral activity, TZM-bl cells, luciferase) [nM]
B1 | 4
B2 | 1.1
Tpa-NLHFCQLRCKSLGLLGRCA[dP]T[U1]CACV-NH2 (disulfide (positions not given here)) [M48U1] | 59
B3 | > 10000
B4 | 16
Tpa-NLHKCQLRCRSLGLLGRCA[dP]T[U1]CACV-NH2 (disulfide (positions not given here)) [mCD4.3] | 221
Tpa-NLHKCQLRCSSLGLLGRCA[dP]T[U1]CACV-NH2 (disulfide (positions not given here)) [mCD4.2] | 512
B5 | 3.6

Each binder was assayed against gp120 of viral strain VI820 (HIV, strain VI820) (assay: cell-based or functional assay).

Binder | EC50 (antiviral activity, TZM-bl cells, luciferase) [nM]
B1 | 0.031
B2 | 0.1
Tpa-NLHFCQLRCKSLGLLGRCA[dP]T[U1]CACV-NH2 (disulfide (positions not given here)) [M48U1] | 3.8
B3 | 1690
B4 | 25
Tpa-NLHKCQLRCRSLGLLGRCA[dP]T[U1]CACV-NH2 (disulfide (positions not given here)) [mCD4.3] | 4.2
Tpa-NLHKCQLRCSSLGLLGRCA[dP]T[U1]CACV-NH2 (disulfide (positions not given here)) [mCD4.2] | 6.1
B5 | 0.024

Each binder was assayed against gp120 of viral strain VI1888 (CRF01) (HIV, strain VI1888 (CRF01)) (assay: cell-based or functional assay).

Binder | EC50 (antiviral activity, TZM-bl cells, luciferase) [nM]
B1 | 1060
B2 | 1070
Tpa-NLHFCQLRCKSLGLLGRCA[dP]T[U1]CACV-NH2 (disulfide (positions not given here)) [M48U1] | 8420
B3 | > 1000
B4 | 1100
Tpa-NLHKCQLRCRSLGLLGRCA[dP]T[U1]CACV-NH2 (disulfide (positions not given here)) [mCD4.3] | 8020
Tpa-NLHKCQLRCSSLGLLGRCA[dP]T[U1]CACV-NH2 (disulfide (positions not given here)) [mCD4.2] | 9760
B5 | 1210

These binders were tested against gp120 of viral strain MP568 (CRF02) (HIV, strain MP568 (CRF02)) (assay: cell-based or functional assay).

Binder | EC50 (antiviral activity, TZM-bl cells, luciferase) [nM]
B1 | 4.9
B2 | 15
Tpa-NLHFCQLRCKSLGLLGRCA[dP]T[U1]CACV-NH2 (disulfide (positions not given here)) [M48U1] | 129
B3 | 7930
B4 | 310
Tpa-NLHKCQLRCRSLGLLGRCA[dP]T[U1]CACV-NH2 (disulfide (positions not given here)) [mCD4.3] | 204
Tpa-NLHKCQLRCSSLGLLGRCA[dP]T[U1]CACV-NH2 (disulfide (positions not given here)) [mCD4.2] | 155
B5 | 4.2

These binders were tested against gp120 of viral strain VI824 (HIV, strain VI824) (assay: cell-based or functional assay).

Binder | EC50 (antiviral activity, TZM-bl cells, luciferase) [nM]
B1 | 0.68
B2 | 2.2
Tpa-NLHFCQLRCKSLGLLGRCA[dP]T[U1]CACV-NH2 (disulfide (positions not given here)) [M48U1] | 29
B3 | 3180
B4 | 40
Tpa-NLHKCQLRCRSLGLLGRCA[dP]T[U1]CACV-NH2 (disulfide (positions not given here)) [mCD4.3] | 39
Tpa-NLHKCQLRCSSLGLLGRCA[dP]T[U1]CACV-NH2 (disulfide (positions not given here)) [mCD4.2] | 56
B5 | 0.7

Each binder was assayed against gp120 of viral strain Ca10-3 (CRF01) (HIV, strain Ca10-3 (CRF01)) (assay: cell-based or functional assay).

Binder | EC50 (antiviral activity, TZM-bl cells, luciferase) [nM]
B1 | 0.12
B2 | 0.6
Tpa-NLHFCQLRCKSLGLLGRCA[dP]T[U1]CACV-NH2 (disulfide (positions not given here)) [M48U1] | 2.7
B3 | 96
B4 | 0.57
Tpa-NLHKCQLRCRSLGLLGRCA[dP]T[U1]CACV-NH2 (disulfide (positions not given here)) [mCD4.3] | 3.1
Tpa-NLHKCQLRCSSLGLLGRCA[dP]T[U1]CACV-NH2 (disulfide (positions not given here)) [mCD4.2] | 4.73
B5 | 0.076

Each binder was assayed against gp120 of viral strain p246F10 (HIV, strain p246F10) (assay: cell-based or functional assay).

Binder | EC50 (antiviral activity, TZM-bl cells, luciferase) [nM]
B1 | 58
B3 | > 10000
B4 | 723
Tpa-NLHKCQLRCRSLGLLGRCA[dP]T[U1]CACV-NH2 (disulfide (positions not given here)) [mCD4.3] | 510
Tpa-NLHKCQLRCSSLGLLGRCA[dP]T[U1]CACV-NH2 (disulfide (positions not given here)) [mCD4.2] | 718
B5 | 33

The binders below were run against gp120 of viral strain pREJO.c/2864 cl2 (HIV, strain pREJO.c/2864 cl2) (assay: cell-based or functional assay).

Binder | EC50 (antiviral activity, TZM-bl cells, luciferase) [nM]
B1 | 0.27
B3 | 108
B4 | 0.66
Tpa-NLHKCQLRCRSLGLLGRCA[dP]T[U1]CACV-NH2 (disulfide (positions not given here)) [mCD4.3] | 46
Tpa-NLHKCQLRCSSLGLLGRCA[dP]T[U1]CACV-NH2 (disulfide (positions not given here)) [mCD4.2] | 76
B5 | 0.28

What follows are binders tested against gp120 of viral strain Bal (HIV, strain Bal) (assay: cell-based or functional assay).

Binder | EC50 (antiviral activity, TZM-bl cells, luciferase) [nM]
B1 | 0.034
B2 | 0.13
Tpa-NLHFCQLRCKSLGLLGRCA[dP]T[U1]CACV-NH2 (disulfide (positions not given here)) [M48U1] | 0.96
B3 | 236
B4 | 0.54
Tpa-NLHKCQLRCRSLGLLGRCA[dP]T[U1]CACV-NH2 (disulfide (positions not given here)) [mCD4.3] | 2.3
Tpa-NLHKCQLRCSSLGLLGRCA[dP]T[U1]CACV-NH2 (disulfide (positions not given here)) [mCD4.2] | 2
B5 | 0.031
